For assay [1], the target named is T1, recombinant human IL4Rα-his protein (in house made) (human, UniProt P24394 26-232, limits assumed).
T1 construct: also called Human IL4Ra-his
Nature of the assay: competitive ELISA: coated human IL4Rα-his, blocked ligand biotin human IL4.

Assay [2] addresses T2, human IL4Rα expressed on 293F-IL4Rα cells (human, UniProt P24394 26-825).
T2 construct: whole, on cells; also called cell surface human IL4Rα
Nature of the assay: flow cytometry on 293F-IL4Rα cells. A general note: Flow cytometry measures light scatter and fluorescence of single cells or particles in a stream.

Assay [3] concerns the target T3, cynomolgus monkey IL4Rα-his protein (cynomolgus monkey, UniProt A0A2K5V580 33-239).
T3 construct: Bought protein; also called Cynomolgus IL4Rα; Cyno-IL4Rα-his; not shown: his tag
Nature of the assay: indirect ELISA on coated cynomolgus IL4Rα-his. Background: In an ELISA, binding on a coated surface is turned into a signal by an enzyme label.

The target of assay [4] is T1, recombinant human IL4Rα-his protein (in …). Nature of the assay: SPR (Biacore), antibody captured, IL4Rα-his flowed. Background: In SPR one partner is held on a chip, and binding of the other changes the refractive index at the surface.
Assay [5] shares this target. Description: competitive ELISA: antibody mixed with biotin human IL4Rα-his, competitor plate-coated Benchmark.
Assay [6] has the same target. Description: SPR (Biacore), antibody captured, IL4Rα-his flowed. The source holds these as a separate data set.
The target of assay [7] is T2, human IL4Rα expressed on 293F-IL4Rα …. Nature of the assay: flow cytometry on 293F-IL4Rα cells. The source holds these as a separate data set.
Assay [8] has as its target T1, recombinant human IL4Rα-his protein (in …). Description: competitive ELISA: antibody mixed with biotin human IL4Rα-his, competitor plate-coated Benchmark. This is another data set of the same source.
For assay [9] the target is unchanged. Description: SPR (Biacore), antibody captured, IL4Rα-his flowed. This is another data set of the same source.
Assay [10] deals with T3, cynomolgus monkey IL4Rα-his protein. Nature of the assay: indirect ELISA on coated cynomolgus IL4Rα-his. The source holds these as a separate data set.
In assay [11] the target is T1, recombinant human IL4Rα-his protein (in …). Description: competitive ELISA: coated human IL4Rα-his, blocked ligand biotin human IL4. The source holds these as a separate data set.
The target is the same in assay [12]. Description: capture ELISA: antibody captured on anti-IgG Fc plate, biotin human IL4Rα-his detected.
The target of assay [13] is T2, human IL4Rα expressed on 293F-IL4Rα …. Description: flow cytometry on 293F-IL4Rα cells, blocked ligand biotin human IL4.

Where “and” joins values, the source holds several entries; their conditions need not be identical. Equal entries are not always repeated. Where two headings read alike, the source gives them in different places.

B1: mouse antibody B8G11F2B7G5E8 (antibody, V domains shown)
VH: EVQLQQSGADLVRPGASVKLSCTASGFNIKDTYMHWVKQRPEQGLEWVGRIDPTNGYTIYASKFQGKATITADTSSNTAYMQLSSLTSGDTAVYHCVSRRPWFAYWGQGTLVTVSA
VL: DILMTQTPLSLPVSLGAQASISCRSSQSIVHSNGNTYLEWYLQKPGQSPKLLIYKVTNRFSGVPDRFSGSGSGTDFTLKISRVEAEDLGIYYCFQGSHVPYTFGGGTKLEIK
notes: Mouse hybridoma mAb; also called Mouse B8G11F2B7G5E8; mAb B8G11F2B7G5E8
With B1, the IC50 (in general, the concentration that inhibits the measured activity by half) in assay [1] worked out at 1 nM. Moreover, the concentration for a half-maximal effect (EC50) (commonly the concentration that produces a half-maximal response) in assay [2] is 0.325 nM; in assay [3], 0.5 nM.

B2: chimeric antibody B8G11F2B7G5E8 (antibody, human IgG4 S228P, kappa, V domains shown)
VH: B1 VH
VL: DILMTQTPLSLPVSLGAQASISCRSSQSIVHSNGNTYLEWYLQKPGQSPKLLIYKVTNRFSGVPDRFSGSGSGTDFTLKISRVEAEDLGIYYCFQGSHVPYTFGGGTKLEIKR
notes: Mouse variable domains on human IgG4/kappa; also called Chimeric B8G11F2B7G5E8; chB8G11F2B7G5E8
With B2, the dissociation constant Kd (as a rule, the equilibrium constant for the complex coming apart) in assay [4] is 3.23 nM; in [6], 3.68 nM and 2.69 nM. Further, the IC50 in [5] was 1.52 nM; in assay [1] it was 1.42 nM. For the same molecule, the EC50 in assay [2] was determined as 0.442 nM; in assay [3] it was 1.06 nM. The dissociation rate constant (koff) (in general, the first-order rate constant of dissociation) in [6] is 0.00112 s⁻¹ and 0.00143 s⁻¹. In addition, the kon (usually the rate constant with which the complex forms) in assay [6] is 306000 M⁻¹ s⁻¹ and 529000 M⁻¹ s⁻¹.

B3: chimeric antibody C2C1A1A1 (antibody, human IgG4 S228P, kappa, V domains shown)
VH: EVQLVESGGGLVQPGGSLKLSCAASGFTFSTYGMSWVRQTPDKRLELVATINSNGGSTSYPDSVKGRFTISRDNAKNTLYLQMSSLKSEDTAMFYCARFFRFRNAMDYWGQGTSVTVSS
VL: DIQMTQSPASLSASVGETVTITCRTSENIYSYLAWYQQKQGKSPQFLVYNAKTLAEGVPSRFSGSGSGTQFSLNINSLQSEDFGSYYCQHYYGPPTWTFGGGTKLEIKR
notes: Mouse variable domains on human IgG4/kappa; also called Chimeric C2C1A1A1; chC2C1A1A1
Turning to B3, the EC50 worked out at 0.326 nM in [7], 0.603 nM in assay [10] and 0.0541 nM in assay [12]. In addition, in assay [4], the Kd was found to be 0.388 nM. Besides, the IC50 in [8] came out at 0.172 nM; in assay [11], 2.46 nM; in assay [13], 0.482 nM. For the same molecule, in [9], the kon is 329000 M⁻¹ s⁻¹ and 364000 M⁻¹ s⁻¹.

Values taken from US20230105029A1 (CHIA TAI TIANQING PHARMACEUTICAL GROUP, published 2023).
